# Results from PMC3458530.
# B1: NUP153 duplex siRNA (dsRNA)
# RNA 1: ACCAAAUAAAACUGGCAAATT
# RNA 2: UUUGCCAGUUUUAUUUGGUTT
# modifications: 3' dTdT on both strands (DNA residues)
# B2: EFS1 (ssEF1a RNA) (ssRNA)
# RNA: GAGUUUACCCCGCGCCACCUU
# Legend:
# Test in all cases: EMSA
# [1] = biological target: DNMT3A full-length (human, UniProt Q9Y6K1 1-912)
# [2] = biological target: DNMT3A catalytic domain (cDNMT3A) (human, UniProt Q9Y6K1 612-912)
# [3] = biological target: T1, M.HhaI (bacterial (species ), UniProt P05102 1-327)
# T1 sequence: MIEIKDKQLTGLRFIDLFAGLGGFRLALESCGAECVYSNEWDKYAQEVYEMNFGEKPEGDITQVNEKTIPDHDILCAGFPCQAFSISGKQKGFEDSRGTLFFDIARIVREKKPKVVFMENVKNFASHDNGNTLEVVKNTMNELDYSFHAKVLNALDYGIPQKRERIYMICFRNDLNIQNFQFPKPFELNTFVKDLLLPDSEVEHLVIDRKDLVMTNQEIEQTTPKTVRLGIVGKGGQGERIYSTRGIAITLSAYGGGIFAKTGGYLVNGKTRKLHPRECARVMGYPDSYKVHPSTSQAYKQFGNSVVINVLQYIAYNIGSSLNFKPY
# DNMT3A full-length, sequence (Q9Y6K1 whole entry, the tested form may be a part): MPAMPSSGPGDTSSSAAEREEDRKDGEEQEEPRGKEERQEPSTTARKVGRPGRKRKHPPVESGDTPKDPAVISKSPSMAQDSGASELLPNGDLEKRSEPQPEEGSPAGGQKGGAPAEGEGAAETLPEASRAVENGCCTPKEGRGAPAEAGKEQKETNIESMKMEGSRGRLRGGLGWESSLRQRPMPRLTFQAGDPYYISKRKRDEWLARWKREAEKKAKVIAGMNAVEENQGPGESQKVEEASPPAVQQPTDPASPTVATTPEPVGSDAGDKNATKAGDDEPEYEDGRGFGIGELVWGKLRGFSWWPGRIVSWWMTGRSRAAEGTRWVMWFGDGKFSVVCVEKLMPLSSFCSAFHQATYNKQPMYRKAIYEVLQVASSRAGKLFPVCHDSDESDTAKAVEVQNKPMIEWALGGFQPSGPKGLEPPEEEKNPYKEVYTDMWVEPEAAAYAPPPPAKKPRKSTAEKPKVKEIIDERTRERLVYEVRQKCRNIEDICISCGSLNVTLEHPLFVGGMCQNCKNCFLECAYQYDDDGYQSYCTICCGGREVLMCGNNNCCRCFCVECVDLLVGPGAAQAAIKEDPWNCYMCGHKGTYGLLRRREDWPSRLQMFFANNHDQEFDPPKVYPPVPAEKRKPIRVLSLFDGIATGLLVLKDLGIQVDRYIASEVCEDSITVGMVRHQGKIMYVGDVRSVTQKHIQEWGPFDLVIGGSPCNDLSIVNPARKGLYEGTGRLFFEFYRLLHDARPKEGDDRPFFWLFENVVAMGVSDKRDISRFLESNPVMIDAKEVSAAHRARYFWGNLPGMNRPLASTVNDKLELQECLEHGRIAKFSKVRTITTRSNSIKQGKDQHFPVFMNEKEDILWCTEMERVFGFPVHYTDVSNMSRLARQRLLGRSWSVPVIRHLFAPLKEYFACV
# DNMT3A catalytic domain (cDNMT3A), sequence (Q9Y6K1 612-912): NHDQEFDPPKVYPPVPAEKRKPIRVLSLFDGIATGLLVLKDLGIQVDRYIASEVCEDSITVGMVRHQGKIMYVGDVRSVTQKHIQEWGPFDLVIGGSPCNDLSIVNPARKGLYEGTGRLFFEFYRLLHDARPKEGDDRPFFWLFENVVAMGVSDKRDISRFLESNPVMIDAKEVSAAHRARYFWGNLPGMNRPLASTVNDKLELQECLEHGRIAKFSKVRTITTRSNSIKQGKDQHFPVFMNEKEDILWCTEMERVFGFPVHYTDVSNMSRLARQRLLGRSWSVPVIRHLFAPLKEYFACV
Binder,Kd [1] [nM],binding result [2],binding result [3]
B1,520,,
B2,690,no binding,no binding
